Data reported in the nanobody polyreactivity screen of Harvey et al. (2022).

Test: yeast display, Sf9 membrane polyspecificity reagent, FACS + sequencing; frameworks hold sequencing errors
Summary of the method: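 In a synthetic yeast display library (Saccharomyces cerevisiae BJ5465), nanobody expression was induced with galactose for 36–48 hours. FACS gates were set low and high (top ~1%) using anti-HA fluorescence for expression and streptavidin fluorescence for binding of the Sf9 membrane reagent. Each polyreactivity label is drawn from the gate of origin.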

| Sequence | polyreactivity (PSR sort gate) |
| --- | --- |
| QVQLVESGGGLVQAGGSLRLSCAASGSNAMGCYRPAPGKDSELVAVITSRGGSTYYADSVKGRFTISRDNAKNTVYLQMNSLKPEDTAVYYCAKAWYVRGTWSVHVRYGYWGQGTQVTVSS | high polyreactivity |
| QVQLVESGGGLVQAGGSLRLSCAASGSNFAINAMGWYRQAPGKERELVAAIRYSTGRTYYADSVKGRFTISRDNAKNTVYLQMNSLKPEDTAVYYCAALGFTKYGSRFDYWGQGTQVTVSS | high polyreactivity |
| QVQLVESGGGLVQAGGSLRLSCAASGSNFASYSMGWYRQSPGKERELVAAITDSGGSTYYADSVKGRLTSSRENGKNTVYLQMNSLKPEDTAVYYCAAYGPYFSYHDYVYWGQGTQVTVSS | low polyreactivity |
| QVQLVESGGGLVQAGGSLRLSCAASGSNFDDYVMGWYRQAPGKERELVAGINSRGTSTDYADSVKGRFTISRDNAQNTVYLQMNSLKPEDTAVYYCAADDSHGYDYWGQGTQVTVSS | low polyreactivity |
| QVQLVESGGGLVQAGGSLRLSCAASGSNFDSYAMGWYRQAPGKERVLVAAITRSSVSTYYADSVKGRFTISRDNAKYTVYLQMNSLKPEDTAVYYCAAEDEWSLLYLWFGEYDYWGQGTQVTVSS | low polyreactivity |
| QVQLVESGGGLVQAGGSLRLSCAASGSNFDYYTMGWYRQAPGKERELVAAISRSGGSTRYADSVKGRFTISRDNAKNTVYLQMNSLKPEDTGVSYCAAGARQGVYRGGDYWGQGTQVTVSS | low polyreactivity |
| QVQLVESGGGLVQAGGSLRLSCAASGSNFGPNAMGWYRQAPGKERELVAAIRSNGGRTYYADSVKGRFTISRDNAKNTVYLQMNRLKPEDTAVYYCAAPHYPYDTPYGYWGHGTQVTVSS | low polyreactivity |
| QVQLVESGGGLVQAGGSLRLSCAASGSNFGSYTMGWYRQAPGKERELDAAITSGGGNTYYADSVKGRFTISRDNAKNTVYLQMNSLKPEDTAVYYCNATVRGRNALGRVQKYYYWGQGTQVTVSS | high polyreactivity |
| QVQLVESGGGLVQAGGSLRLSCAASGSNFGYYAMGWYRQAPGKERELVAAISWRGGSTYYADSVTGRFTISRDNAKNTVYLQMNSLTPEDTAVYDCAAPVGNYGSFDYWGQGTQVTVSS | low polyreactivity |
| QVQLVESGGGLVQAGGSLRLSCAASGSNFHGNAMGWSRQAPGKERELVAAISQSGDSTYYADSVKGRFTISRDNAKNTVYLQMNSLKPEDTAVYYCAARSGYRGYYHFYYWGQGTQVTVSS | high polyreactivity |
| QVQLVESGGGLVQAGGSLRLSCAASGSNFIGYAMGWYRQEPGKERELVAAISNSGGRTYYADSVKGRFTISRDNAKNTVYLQMNSLKPEDTAVYYCNVAYRIPYRMDYWGQGTQVTVSS | high polyreactivity |
| QVQLVESGGGLVQAGGSLRLSCAASGSNFINNAMGWYRQAPGKERELVAAISGNADRTYYADSVKGRFTISRDNAKNTLYLQMNSLKPEETAVYYCNKGYGVYYTFGSWGQGTQVTVSS | low polyreactivity |
| QVQLVESGGGLVQAGGSLRLSCAASGSNFNIKAIGWYRQAPGKERELVATIPSGGTTSSADSVNGRFTISRDNAKNTVYLQMNSLKPEDTAVYYCYAEIYPIVKAGRHHRRRYDYWGQATQVTVSS | low polyreactivity |
| QVQLVESGGGLVQAGGSLRLSCAASGSNFNNNAMGWYRQAPGKERELVASISLSAGSTYYADSVKGRFTISRDNAKNTVYLQMNSLKPEDTAVYYCAAEVGYWGYQISGDYWGQGTQVTVSS | low polyreactivity |
| QVQLVESGGGLVQAGGSLRLSCAASGSNFNYNDMGWSRQAPGKERELVAAIDSSGTSTYYADSVKGRFTISRDNAKNTVYLQMNSLKPEDTAVYYCNADSSLGFGYWGQGTQVTVSS | low polyreactivity |
| QVQLVESGGGLVQAGGSLRLSCAASGSNFQRYTMGWYSQAPGKERELVAAITSRSGRTYYADSVKGRFTISRDNAKNTVYLQMNSLKPEDTAVYYCATVPYDQTRGYKYDYWGQGTQVTVSS | high polyreactivity |
| QVQLVESGGGLVQAGGSLRLSCAASGSNFQVYAMGWYRQAPGKERELVATIRRTGGSTYYADSVKGRFTISRDNAKNTVYLQMNSLKPEDTAVYYCAARTYGGYVLRLDYWGQGTQVTVSS | high polyreactivity |
| QVQLVESGGGLVQAGGSLRLSCAASGSNFRNNAMGWYRQAPGKERELVASISSSGDSTYADSVKGRFTISRDNAMITVYLQMNSLKPEDTAVYYCARDYLSPYAVDYWGQGTQVTVSS | low polyreactivity |
| QVQLVESGGGLVQAGGSLRLSCAASGSNFRPYAMGWYRPAPGKERELVAAISYRGGSTYYADSVKGRFTISRDNAKNTVYLQMNSLKPEDTAVYYCAADSREEGDYWGQGTQVTVSS | low polyreactivity |
| QVQLVESGGGLVQAGGSLRLSCAASGSNFRRNAMGWYRQAPGKERELVAAISSNGGSTYYADSVKGRFTISRDNAKNTVYLQLNSLKPEDSAVYYCNALGRVRYSPRYGYDYWGQGTQVTVSS | high polyreactivity |
| QVQLVESGGGLVQAGGSLRLSCAASGSNFRVYAMGWYRQAPGKERELVAAISSSGVRTSYADSVKGRFTISRDIAKNTVYLQMNSLKPEDTSVYYCADRYPYGYYHWGQGTQVTVSS | high polyreactivity |
| QVQLVESGGGLVQAGGSLRLSCAASGSNFRYNTMGSYRQAPGKERELVAAITQSGDNTYYADSVKGRFTISRDNAKNTVYLQMNSLKPEDTAVYYCAASGARSDGWTSYDYWGQGTQVTVSS | low polyreactivity |

| Sequence | polyreactivity (PSR sort gate) |
| --- | --- |
| QVQLVESGGGLVQAGGSLRLSCAASGSNFRYYAMGWYRQAPGKERELFAAISSNGGSTSYADSVKGRFTISRDNAKNTVYLQMNSLKPEDTAVYYCAATRRWYPTKLYGYWGQGTQVTVSS | high polyreactivity |
| QVQLVESGGGLVQAGGSLRLSCAASGSNFSHYAMGWYRQAPGKESELVAAISSGDSTNYADSVKGRFTISRDNAKNTVYLQMSSVKPEDTAVYYCAKTRRRLLTRYDYWGQGTQVSVSS | low polyreactivity |
| QVQLVESGGGLVQAGGSLRLSCAASGSNFSYTMGWYRQAPGKERELVAAITSGGITYYADSVKRRFTISRDNAKNTVYLQMNCLKPEDTAVYYCNAYYPYGLASFYYWGQGTQVTVSS | low polyreactivity |
| QVQLVESGGGLVQAGGSLRLSCAASGSNFVVNAMGWYRQAPGKERELVAAITQSGGSTFYADSVKGRFTISRDNAKNTVYLLMNSLKPEDSAVYYWGQGTQVTVSS | low polyreactivity |
| QVQLVESGGGLVQAGGSLRLSCAASGSNFVYNAMGRNRQAPGKERELVAAISSGGRTNYADSVKGRFTISRDNANNTVYLQMNSLKPEDTAVYYCADEGLLWWSGYYYWGQGTQVTVYS | high polyreactivity |
| QVQLVESGGGLVQAGGSLRLSCAASGSNFWAYTMGWYRQAPGKERELVAVITDSTGSTYYADSVKGRFTISRDNAMNTVFLQMNSLKPEDTAVYYCAARLWIGYLKYDYWGQGTQVTVSS | high polyreactivity |
| QVQLVESGGGLVQAGGSLRLSCAASGSNFWLYAMGWYRQAPGKERELVAAIRSGDRTNYADSVKGRFTISRDNAKNTVYLQMNSLKPEDTAVYYCAAVAYLNWTPHYYWGQGTQVTVSS | low polyreactivity |
| QVQLVESGGGLVQAGGSLRLSCAASGSNFYIYAMGRYRQAPGKERELVAAISYSGGRTTYADSVKGRFTISRDYAKNTVYLQMNSLKPEDTAVYYCAAGFSYYGLAVAPYRSWGRYYNWGQGTQVTVSS | high polyreactivity |
| QVQLVESGGGLVQAGGSLRLSCAASGSNFYNNVMGWYRQAPGKERELVAAINSGGRTYYADSVKGRFTISRDNAKNTVYLQMNSLKPEDTAVYYCAVGYGRAARMDYWGQGTQVTVSS | high polyreactivity |
| QVQLVESGGGLVQAGGSLRLSCAASGSNFYPYAMGWYRQAPGKERELVAGITGGGRTYYADSVKGRFTISRDNAKNTVYLQMNSLKPEDTAVYYCAAVDYVSYYIPFHYEYYWGQGTQVTVSS | low polyreactivity |
| QVQLVESGGGLVQAGGSLRLSCAASGSNFYVYAMGWYRQAPGKERELVAAIRWSGGSTYYADSVKGRFTISRDNANYPVYLQMNSLKPEDTADYYCAADAHPDSVWYGEYDYWGQGTQLTVSS | low polyreactivity |
| QVQLVESGGGLVQAGGSLRLSCAASGSNLYPYAMGWYRQAPGKERELVAAISRGGSTNYADSVKGRYTIARDNAKNTVYLQMNSLKPDDTAVYYCATAYTRFSQRYEYYVIYWQNDYWGQGTQVTVSS | low polyreactivity |
| QVQLVESGGGLVQAGGSLRLSCAASGSNSVYNAMGWYRQAPGKERELVAAISWSGGRTSYADSVKGRFTISRDNAKNTVYLQMNSLKPEDTAVYYCAADELTVLWDEDYWGQGTQVTVSS | low polyreactivity |
| QVQLVESGGGLVQAGGSLRLSCAASGSNYTYYAMGWYRQAPGKERQLVAAIRSSGSTYYADSVKGRFTISRDNAKNTVYLQMNSLKPEDTAVYYCAAKARRLNASSYDYWGQGTQVTVSS | high polyreactivity |
| QVQLVESGGGLVQAGGSLRLSCAASGSPFFVYAMGWYRQAPGTERELVAAISSRGSTYYADSVKGRFTIARDTAKNTVYLQMNSLKPEDTAVYYCAAEYTVSYLRMDYWGQGTQVTVSS | low polyreactivity |
| QVQLVESGGGLVQAGGSLRLSCAASGSPFRGNAMGWYRQAPGKEREFVAAITVSCGSTYYADSVKGRFTISRDNAKNNVYLQMKSLNPEDTAVYYCAARYLRYSSKTIQNEDYWGQGTQVTVSS | high polyreactivity |
| QVQLVESGGGLVQAGGSLRLSCAASGSPFYGYGMGWYRQAPVKERELVAASTRSGGSTYYADSVKGRFTRSRDNAKNTVYVQKNSLKPEDTEVYYCNKSGYKGGVGYDYWGQGTQVTVSS | high polyreactivity |
| QVQLVESGGGLVQAGGSLRLSCAASGSRYSRNAMGWYRQAPGKERELVAASSYSSGSTYYADSVKGRFTISLDNAKNTVYLQMNSLIPEDTAVYYCAADTTKLQGVEGDYWGQGTQVTVSS | low polyreactivity |
| QVQLVESGGGLVQAGGSLRLSCAASGSSFYDNAMGWYRQAPGKERELVAGIRSTGRTYYADSVKGRFTISRDNAKNTVYLQMNSLKPEDTAVYYCAAYVGTYGEYDYWGQGTQVTVSS | low polyreactivity |
| QVQLVESGGGLVQAGGSLRLSCAASGSSFYDYAMVWYRQAPGKERELVAAINGNGDSTYYADSVKGRFTISRDNAKYTVYLQMNSLKPEDNAVYYCAAYLGWGYDYWGQGTQVTVSS | low polyreactivity |
| QVQLVESGGGLVQAGGSLRLSCAASGSSFYSNAMGWYRQAPGKERELVAAISSSGGSTYYADSVKGRFTISRDNAKNTVYLQMNSLKPEDTAVYYCAAYSYYPPYDYWGQGTQVTVSS | high polyreactivity |
